Positions count from the first letter of the chain named.
T1: hsGLUT4 G414A (human, UniProt P14672 1-509)
T1 sequence: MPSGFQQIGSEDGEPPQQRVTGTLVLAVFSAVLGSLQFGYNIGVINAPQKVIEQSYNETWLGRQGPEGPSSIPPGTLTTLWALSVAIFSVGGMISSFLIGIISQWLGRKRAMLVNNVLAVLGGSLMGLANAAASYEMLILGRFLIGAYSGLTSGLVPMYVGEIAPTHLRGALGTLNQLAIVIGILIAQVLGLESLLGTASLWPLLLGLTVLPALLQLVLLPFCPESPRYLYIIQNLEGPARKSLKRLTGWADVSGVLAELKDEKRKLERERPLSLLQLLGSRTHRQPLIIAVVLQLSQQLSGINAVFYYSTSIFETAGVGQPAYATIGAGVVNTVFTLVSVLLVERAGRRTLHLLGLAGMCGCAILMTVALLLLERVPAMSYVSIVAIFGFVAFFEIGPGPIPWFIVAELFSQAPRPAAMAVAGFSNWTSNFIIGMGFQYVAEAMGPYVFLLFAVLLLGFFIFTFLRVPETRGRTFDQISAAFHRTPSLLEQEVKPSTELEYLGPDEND

T2: hsGLUT4 M112A (human, UniProt P14672 1-509)
T2 sequence: T1 sequence with M112A, A414G

T3: hsGLUT4 L61A (human, UniProt P14672 1-509)
T3 sequence: T1 sequence with L61A, A414G

T4: hsGLUT4 R416A (human, UniProt P14672 1-509)
T4 sequence: T1 sequence with A414G, R416A

B1: AB111 (Fc fusion)
scFv: ALTQPSSVSANPGETVKITCSGSGSWYGWFQQKSPGSAPVTVIYSNDKRPSDIPSRFSGSKSGSTSTLTITGVQVEDEAVYYCGNWDIFGAGTTLTVLGQSSRSSGGGGSSGGGGSAVTLDESGGGLQTPGGALSLVCKASGFTFSSHGMGWVRQAPGKGLEWVASISTGRYTFYAPAVKGRATISRDNGQSTVRLQLNNLRAEDTATYYCTKCAGLNGCGGGEIDAWGHGTEVIVSS
notes: Bivalent scFv-Fc; also called MAb AB111; not shown: Fc fragment of human IgG1, cloned in frame with the scFv
B2: AB101 (scFv)
scFv: ALTQPSSVSANPGETVKITCSGSSNSYGWYQQKSPGSAPVTVIYYNDKRPSDIPSRFSGSKSDSTHTLTITGVRAEDEAVYFCGSYDSTYVGIFGAGTTLTVLGQSSRSSGGGGSSGGGGSAVTLDESGGGLQTPGGTLSLVCKASGFTFSSNAMGWVRQAPGKGLEWVAGISSDGRYTKYGSAVKGRATISRDNGQSTVRLQLNNLRAEDTGTYFCAKAFGNNYRRIYAGQIDAWGHGTEVIVSS
notes: Chicken-derived clone used as a control; the four lead clones were tested as scFv-human IgG1 Fc; also called MAb AB101
B3: AB108 (Fc fusion)
scFv: ALTQPSSVSANLGGTVKITCSGSSGSYGWYQQKAPGSAPVTLIYRNDKRPSDIPSRFSGSESGSTGTLTITGVQAEDEAVYFCGGYDSSAGYAAFGAGTTLTVLGQSSRSSGGGGSSGGGGSAVTLDESGGGLQTPGGALSLVCKASGFTFSSHGMGWVRQAPGKGLEWVGSISTGRYTFYAPAVKGRATISRDNGQSTLRLQLNNLRAEDTGTYYCTKCAGLNGCGGGEIDAWGHGTEVIVSS
notes: Bivalent scFv-Fc; also called MAb AB108; not shown: Fc fragment of human IgG1, cloned in frame with the scFv

Legend:
Assay in all cases: flow cytometry, alanine-scan library in HEK-293T
[1] = molecular target: T1, hsGLUT4 G414A
Experimental: (§1) Because of the state-dependence of the isolated MAbs, we next wished to understand the mechanism by which each MAb could recognize GLUT4 in its different conformations. The residues required for binding of each MAb were determined using shotgun mutagenesis comprehensive alanine scanning (Davidson E & Doranz B J (2014) A High-Throughput Shotgun Mutagenesis Approach to Mapping B-cell Antibody Epitopes. Immunology, which is hereby incorporated by reference in its entirety). All residues of hsGLUT4 were individually mutated to alanine, with existing alanines changed to serines. Mutations were obtained for 508 of the 509 residues of GLUT4 (excluding the initiating methionine). The entire mutation library was transfected into human HEK-293T cells in a 384-well array format (one clone per well) and assessed for immunoreactivity using high-throughput flow cytometry.
(§2) HEK-293T cells were transfected by CaPO₄ with plasmids in 6-well culture plates (Falcon) at 750,000 cells/well. At 48 hours post transfection, cells were stained with anti-V5 and anti-GLUT4 MAbs (purified scFv, 2 μg/ml) followed by biotinylated goat anti-mouse or human antibody (1:500) and streptavidin-PerCP (1:500). Fluorescence was detected using an Intellicyt high-throughput flow cytometer (HTFC; Intellicyt, Albuquerque, N. Mex.). For cell permeabilization, cells were treated with saponin at 0.1% in PBS for 20 minutes. To discriminate intact (live) and permeabilized (dead) cells without the use of detergent, propidium iodide (PI) was added to HEK-293T cells at 1 ug/ml just prior to flow cytometry. Where indicated, cytochalasin B (Sigma) was used at a final concentration of 10 uM and phloretin (Sigma) was used at a final concentration of 100 uM, each added in 10% NGS for 30 minutes prior to antibody staining as well as included with the primary antibody.

[2] = molecular target: T2, hsGLUT4 M112A
Experimental: as §1, §2

[3] = molecular target: T3, hsGLUT4 L61A
Experimental: as §1, §2

[4] = molecular target: T4, hsGLUT4 R416A
Experimental: as §1, §2

| Molecule | % of binding to wild type GLUT4 [1] [%] | % of binding to wild type GLUT4 [2] [%] | % of binding to wild type GLUT4 [3] [%] | % of binding to wild type GLUT4 [4] [%] |
| --- | --- | --- | --- | --- |
| 1F8 (antibody) | 78 | 120 | 90 | 73 |
| B1 | 109 | 79 | 80 | 157 |
| B2 | 83 | 103 | 115 | 69 |
| B3 | 80 | 57 | 13 | 67 |
